Laboratory results taken from patent publication US20250152746A1, “BASE EDITING OF ANGPTL3 AND METHODS OF USING SAME FOR TREATMENT OF DISEASE” (Verve Therapeutics, Inc., priority 2020, published 2025).
In the oligonucleotide strings, read from the 5' end, every base follows the letter of its sugar. An asterisk marks phosphorothioate; unmarked linkages are phosphodiester. Other units and linkages are bracketed, terminal groups are in braces. A string of capitals states the bases alone. m = 2'-O-methyl; r = 2'-OH (RNA)

What was measured:
PCSK9 gene [1] = experiment: PCSK9 gRNA/SpCas9 editing in primary human hepatocytes (Tables 2, 4); type: cell-based; details: SpCas9 mRNA MS002 1:1 by weight; for % Editing, day 5 / % Editing, day 3: modified gRNA; for % Editing, day 5: day 5 post transfection; for % Editing, day 3: day 3 post transfection; for Human Primary Hepatocyte Editing % 100: 100 ng/RNA/mL; for Human Primary Hepatocyte Editing % 500: 500 ng/RNA/mL; for Human Primary Hepatocyte Editing % 2500: 2500 ng/RNA/mL
Description: (§1) In set of experiments, PCSK9 gRNAs were co-transfected with an equivalent amount (1:1 ratio by weight) of in vitro transcribed commercially available SpCas9 mRNA MS002 purchased from TriLink Biotechnologies into primary human hepatocytes at 2500, 500, or 100 ng/RNA/mL and processed as described in detailed methods. Extracted genomic DNA was analyzed for gene editing at the target site with next-generation sequencing of PCR amplicons generated around the target sites. Samples were prepared using the Nextera XT DNA library preparation kit (Illumina) according to the manufacturer's protocol. Briefly, two rounds of PCR were performed first to amplify the region of interest and second to add DNA sequences required for next generation sequencing and sample identification to the initial product. The final amplicon was sequenced on the Illumina MiSeq instrument according to the manufacturer's protocol. A wide range of editing activities (Table 2) were observed. In a second set of experiments, ANGPTL3 gRNAs were co-transfected with an equivalent amount of in vitro transcribed SpCas9 mRNA (1:1 ratio by weight) into primary human hepatocytes and processed and analyzed similarly (Table 3).
PCSK9 gRNAs were co-transfected with an equivalent amount of in vitro transcribed SpCas9 mRNA MS002 (1:1 ratio by weight) into primary human hepatocytes and processed as described in detailed methods. A wide range of editing activities were observed (Table 4; ND=Not determined). The guides with the highest editing activity at five days post transfection were GA001, GA002, GA007, and GA008.
Human primary hepatocytes were transfected at 2500, 1250, 500, and 250 ng/test article/mL with SpCas9 mRNA MS002 and a gRNA targeting PCSK9 with modifications to the tracr. Genomic DNA was processed, sequenced, and analyzed as described in the detailed methods section. GA156 was transfected to serve as a positive control.
Plating, culturing, and transfection of primary hepatocytes. Primary human liver hepatocytes (PHH) and primary cynomolgus liver hepatocytes (PCH) from BioIVT were cultured per the manufacturer's protocol. Briefly, primary human hepatocytes and primary cyno hepatocytes were obtained as frozen aliquots from BioIVT. Four lots of primary human hepatocytes, each derived from a de-identified individual donor, were used for the experiments: STL (main donor) was used for all experiments, including screening experiments and off-target experiments; HLY, JLP, and TLY were used for off-target experiments. The HFG lot of primary cyno hepatocytes were used for experiments. Following the manufacturer's instructions, cells were thawed and rinsed prior to plating in 24-well plates that had been coated with bovine collagen overnight, with a density of approximate 350,000 cells/well in INVITROGRO hepatocyte medium supplemented with TORPEDO antibiotic mix (BioIVT). The cells were thawed and resuspended in hepatocyte thawing medium followed by centrifugation at 100 g for 10 min at 4° C. The supernatant was discarded, and the pelleted cells resuspended in hepatocyte plating medium. Each vial contains approximately 5 million cells that were used for plating one 24-well plate. Plated cells were allowed to settle and adhere for 4-6 h in a tissue culture incubator at 37° C. under 5% CO2 atmosphere. After incubation, cells were checked for monolayer formation. The incubating media were then replaced with fresh hepatocyte maintenance media (complete INVITROGRO medium obtained from BioIVT, the cell line provider). The cells thus became ready for transfection. Each of the gRNAs were co-transfected with an equivalent amount of in vitro transcribed ABE8.8 mRNA (1:1 ratio by molecular weight) into primary human hepatocytes via MessengerMax reagent (Lipofectamine), using various dilutions to assess for editing activity at different concentrations of test article. MessengerMAX from Thermo Fisher is used for transfection. […]

PCSK9 gene [2] = experiment: PCSK9 gRNA/SpCas9 editing in primary cynomolgus hepatocytes (Tables 2, 22); type: cell-based, cynomolgus monkey; details: SpCas9 mRNA MS002 1:1 by weight; for Cyno Primary Hepatocyte Editing % 100: 100 ng/RNA/mL; for Cyno Primary Hepatocyte Editing % 500: 500 ng/RNA/mL; for Cyno Primary Hepatocyte Editing % 2500: 2500 ng/RNA/mL
Description: as §1
[…] Genomic DNA was processed, sequenced, and analyzed as described in the detailed methods section. GA266 was transfected independently twice to serve as two positive controls.
Plating, culturing, and transfection of primary hepatocytes. Primary human liver hepatocytes (PHH) and primary cynomolgus liver hepatocytes (PCH) from BioIVT were cultured per the manufacturer's protocol. Briefly, primary human hepatocytes and primary cyno hepatocytes were obtained as frozen aliquots from BioIVT. Four lots of primary human hepatocytes, each derived from a de-identified individual donor, were used for the experiments: STL (main donor) was used for all experiments, including screening experiments and off-target experiments; HLY, JLP, and TLY were used for off-target experiments. The HFG lot of primary cyno hepatocytes were used for experiments. Following the manufacturer's instructions, cells were thawed and rinsed prior to plating in 24-well plates that had been coated with bovine collagen overnight, with a density of approximate 350,000 cells/well in INVITROGRO hepatocyte medium supplemented with TORPEDO antibiotic mix (BioIVT). The cells were thawed and resuspended in hepatocyte thawing medium followed by centrifugation at 100 g for 10 min at 4° C. The supernatant was discarded, and the pelleted cells resuspended in hepatocyte plating medium. Each vial contains approximately 5 million cells that were used for plating one 24-well plate. Plated cells were allowed to settle and adhere for 4-6 h in a tissue culture incubator at 37° C. under 5% CO2 atmosphere. After incubation, cells were checked for monolayer formation. The incubating media were then replaced with fresh hepatocyte maintenance media (complete INVITROGRO medium obtained from BioIVT, the cell line provider). The cells thus became ready for transfection. Each of the gRNAs were co-transfected with an equivalent amount of in vitro transcribed ABE8.8 mRNA (1:1 ratio by molecular weight) into primary human hepatocytes via MessengerMax reagent (Lipofectamine), using various dilutions to assess for editing activity at different concentrations of test article. MessengerMAX from Thermo Fisher is used for transfection. Solution A: desired amount of guide RNA is mixed with 1:1 wt ratio of mRNA in OptiMEM. Solution B: MessengerMAX in OptiMEM. After mixing solutions A and B, the mixture was incubated at room temperature for 20 min. 60 μL of the incubated solution was added dropwise to each cell wells. For protospacer sequences that were a perfect match to the corresponding cynomolgous monkey PCSK9 or ANGPTL3 gene sequence, each gRNA was also co-transfected with an equivalent amount of ABE8.8 mRNA (1:1 ratio by molecular weight) into primary cynomolgous hepatocytes, and followed the same transfection protocol. […]

Molecule | % Editing, day 5 (PCSK9 gene [1]) | % Editing, day 3 (PCSK9 gene [1]) | Cyno Primary Hepatocyte Editing % 100 (PCSK9 gene [2]) | Cyno Primary Hepatocyte Editing % 500 (PCSK9 gene [2]) | Cyno Primary Hepatocyte Editing % 2500 (PCSK9 gene [2]) | Human Primary Hepatocyte Editing % 100 (PCSK9 gene [1]) | Human Primary Hepatocyte Editing % 500 (PCSK9 gene [1]) | Human Primary Hepatocyte Editing % 2500 (PCSK9 gene [1])
GA003: PCSK9 gRNA, GA156 spacer with modifications to the tracrRNA sequence (nucleic acid) guide: mG*mG*mU*rGrCrUrArGrCrCrUrUrGrCrGrUrUrCrCrGrGrUrUrUrU*rArGrAmGmCmUmAmGmAmAmAmUmAmGmCrArArGrUrU*rArArArArU*rArArGrGrCrU*rArGrUrCrCrGrUrU*rArUrC*rAmAmCmUmUmGmAmAmAmAmAmGmUmGmGmCmAmCmCmGmAmGmUmCmGmGmUmGmCmU*mU*mU*mU | 7% |  |  |  |  |  |  | 
GA009: minimally modified control gRNA, PCSK9 (nucleic acid) guide: mG*mG*mU*rGrCrUrArGrCrCrUrUrGrCrGrUrUrCrCrGrGrUrUrUrUrArGrArGrCrUrArGrArArArUrArGrCrArArGrUrUrArArArArUrArArGrGrCrUrArGrUrCrCrGrUrUrArUrCrArArCrUrUrGrArArArArArGrUrGrGrCrArCrCrGrArGrUrCrGrGrUrGrCrU*mU*mU*mU | 19% | 4% |  |  |  |  |  | 
GA005: PCSK9 gRNA, GA156 spacer with modifications to the tracrRNA sequence (nucleic acid, chemistry not given here) guide: GGTGCTAGCCTTGCGTTCCGGTTTTAGAGCTAGAAATAGCAAGTTAAAATAAGGCTAGTCCGTTATCAACTTGAAAAAGTGGCACCGAGTCGGTGCTTTTT | 15% | 1% |  |  |  |  |  | 
GA001: PCSK9 gRNA, GA156 spacer with modifications to the tracrRNA sequence (nucleic acid) guide: rG*rG*rU*rGrCrUrArGrCrCrUrUrGrCrGrUrUrCrCrGrGrUrUrUrUrArGrAmGmCmUmAmGmAmAmAmUmAmGmCrArArGrUrUrArArArArUrArArGrGrCrUrArGrUrCrCrGrUrUrArUrCrAmAmCmUmUmGmAmAmAmAmAmGmUmGmGmCmAmCmCmGmAmGmUmCmGmGmUmGmCmU*mU*mU*mU | 27% | 16% |  |  |  |  |  | 
GA191: PCSK9 gRNA; protospacer GCCCCATGTCGACTACATCG (SEQ ID NO: 185) (nucleic acid) guide: mG*mC*mC*rCrCrArUrGrUrCrGrArCrUrArCrArUrCrGrGrUrUrUrUrArGrArGrCrUrArGrArArArUrArGrCrArArGrUrUrArArArArUrArArGrGrCrUrArGrUrCrCrGrUrUrArUrCrArArCrUrUrGrArArArArArGrUrGrGrCrArCrCrGrArGrUrCrGrGrUrGrCrU*mU*mU*mU |  |  | 5.46% | 26.79% | 51.79% | 3% | 12.2% | 34.6%
GA004: PCSK9 gRNA, GA156 spacer with modifications to the tracrRNA sequence (nucleic acid) guide: mG*mG*mU*rGrCrUrArGrCrCrUrUrGrCrGrUrUrCrCrGmGrUrUrUrUrArGmAmGmCmUmAmGmAmAmAmUmAmGmCmAmArGrUrUmArAmArAmUrAmAmGmGmCmUmArGrUmCmCrGrUrUrAmUmCrArAmCmUmUmGmAmAmAmAmAmGmUmGrGmCmAmCmCmGmAmGmUmCmGmGmUmGmCmUmUmUmUmU | 12% | 7% |  |  |  |  |  | 
GA189: PCSK9 gRNA; protospacer TCCTCGATGTAGTCGACATG (SEQ ID NO: 183) (nucleic acid) guide: mU*mC*mC*rUrCrGrArUrGrUrArGrUrCrGrArCrArUrGrGrUrUrUrUrArGrArGrCrUrArGrArArArUrArGrCrArArGrUrUrArArArArUrArArGrGrCrUrArGrUrCrCrGrUrUrArUrCrArArCrUrUrGrArArArArArGrUrGrGrCrArCrCrGrArGrUrCrGrGrUrGrCrU*mU*mU*mU |  |  | 3.30% | 15.58% | 41.70% | 1.76% | 8.94% | 31.23%
GA187: PCSK9 gRNA; protospacer CTCCTCGATGTAGTCGACAT (SEQ ID NO: 181) (nucleic acid) guide: mC*mU*mC*rCrUrCrGrArUrGrUrArGrUrCrGrArCrArUrGrUrUrUrUrArGrArGrCrUrArGrArArArUrArGrCrArArGrUrUrArArArArUrArArGrGrCrUrArGrUrCrCrGrUrUrArUrCrArArCrUrUrGrArArArArArGrUrGrGrCrArCrCrGrArGrUrCrGrGrUrGrCrU*mU*mU*mU |  |  | 3.77% | 12.30% | 29.24% | 2.44% | 6.47% | 
GA002: PCSK9 gRNA, GA156 spacer with modifications to the tracrRNA sequence (nucleic acid, listed as RNA; modified_base 1: mod_base = OTHER; note = 2'-O-Methyl-guanosine phosphorothioate; modified_base 2: mod_base = OTHER; modified_base 3: mod_base = OTHER; note = 2'-O-Methyl-uridine phosphorothioate) guide: GGTGCTAGCCTTGCGTTCCGGTTTTAGAGCTAGAAATAGCAAGTTAAAATAAGGCTAGTCCGTTATCAACTTGAAAAAGTGGCACCGAGTCGGTGCTTTT | 23% | 28% |  |  |  |  |  | 
GA188: PCSK9 gRNA; protospacer TATTCATCCGCCCGGTACCG (SEQ ID NO: 182) (nucleic acid) guide: mU*mA*mU*rUrCrArUrCrCrGrCrCrCrGrGrUrArCrCrGrGrUrUrUrUrArGrArGrCrUrArGrArArArUrArGrCrArArGrUrUrArArArArUrArArGrGrCrUrArGrUrCrCrGrUrUrArUrCrArArCrUrUrGrArArArArArGrUrGrGrCrArCrCrGrArGrUrCrGrGrUrGrCrU*mU*mU*mU |  |  | 0.01% | 0.01% | 0.06% | 4.21% | 15.38% | 41.02%
GA006: PCSK9 gRNA, GA156 spacer with modifications to the tracrRNA sequence (nucleic acid) guide: rG*rG*rU*rGrCrUrArGrCrCrUrUrGrCrGrUrUrCrCrGmGrUrUrUrUrArGmAmGmCmUmAmGmAmAmAmUmAmGmCmAmArGrUrUmArAmArAmUrAmAmGmGmCmUmArGrUmCmCrGrUrUrAmUmCrArAmCmUmUmGmAmAmAmAmAmGmUmGrGmCmAmCmCmGmAmGmUmCmGmGmUmGmCmU*mU*mU*mU | 12% |  |  |  |  |  |  | 
